The values below come from paper PMC4734655.

The experiment has as its target recombinant human IL-8 (interleukin-8) (human). The experiment in a line: SPR; Biacore; IL-8 immobilised on a CM5 chip by amine coupling (Fc2), BSA on the reference cell (Fc1); soluble recombinant Mtb proteins as analytes at 2.5, 5, 10 and 20 uM; 22 °C, PBS pH 7.4 with 0.005% P20; flow 5 ul/min; one-to-one model. (In SPR one partner is held on a chip, and binding of the other changes the refractive index at the surface.)

Chain of recombinant M. tuberculosis rSahH (His-tagged, from pHis-sahH) (P9WGV3 whole entry): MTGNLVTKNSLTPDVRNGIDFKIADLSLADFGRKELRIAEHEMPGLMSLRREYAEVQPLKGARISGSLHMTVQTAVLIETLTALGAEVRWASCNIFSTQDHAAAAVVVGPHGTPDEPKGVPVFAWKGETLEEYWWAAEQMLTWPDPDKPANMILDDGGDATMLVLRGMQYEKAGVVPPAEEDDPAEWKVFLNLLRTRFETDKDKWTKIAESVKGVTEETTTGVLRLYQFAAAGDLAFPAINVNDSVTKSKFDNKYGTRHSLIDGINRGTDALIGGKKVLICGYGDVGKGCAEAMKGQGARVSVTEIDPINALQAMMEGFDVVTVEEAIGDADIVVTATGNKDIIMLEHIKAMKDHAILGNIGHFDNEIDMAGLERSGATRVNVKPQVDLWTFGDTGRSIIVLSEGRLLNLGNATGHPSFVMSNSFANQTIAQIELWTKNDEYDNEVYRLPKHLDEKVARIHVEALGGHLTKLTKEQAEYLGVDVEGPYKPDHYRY

On to “recombinant M. tuberculosis rSahH (His-tagged, from pHis-sahH) (from UniProt P9WGV3 1-495) (enzyme)”, for which the Kd (in general, the free concentration of one partner at which half of the binding sites on the other are occupied at equilibrium, for simple one-to-one binding) is 714 pM.
